Earlier results in article PMC10952613.
Several values for one entry are separate records, joined by “and”; a condition that tells them apart may be missing. Equal entries are not always repeated.

Target: EGFR (Homo sapiens) (UniProt P00533)

## EGF (from UniProt P01133)
  Kd: < 1 nM and > 10 nM
